{"source": "patent US20100003264A1", "about": "“Reduction of Ophthalmalogic Neovascularization” (WASHINGTON UNIVERSITY, priority 2005, published 2010)", "molecules": {"B1": {"name": "IL-10: cytokine produced by activated macrophages and some helper T cells; injected exogenously into eyes of IL-10 knockout mice (protein, UniProt P18893 19-178, looked up)", "Interleukin-10": "SRGQYSREDNNCTHFPVGQSHMLLELRTAFSQVKTFFQTKDQLDNILLTDSLMQDFKGYLGCQALSEMIQFYLVEVMPQAEKHGPEIKEHLNSLGEKLKTLRMRLRRCHRFLPCENKSKAVEQVKSDFNKLQDQGVYKAMNEFDIFINCIEAYMMIKMKS"}}, "system": "choroidal neovascularization", "experiment": "laser-induced choroidal neovascularization in mice, volume of the neovascular complex", "format": "in vivo", "details": "IL-10 knockout mice, IL-10 intravitreally on day of laser or three days after laser", "description": "Volume of the neovascular complex was examined in IL-10 knockout mice. Knockout mice were purchased commercially (NCI, Frederick, Md.). All work was carried out per the ARVO guidelines for animal use in research. Rupture of Bruch's membrane with laser was used to initiate chorioretinal neovascularization in 5-7 week old mice as described in Nambu et al. ((2003) Invest Ophthalmol Vis Sci 44: 3650). Seven days after laser, the mice were anesthetized and perfused intraventricularly with fluorescein-labeled dextran. The mice were euthanized with CO2 inhalation and the eyes harvested for tissue processing. A dissecting microscope was used to remove the cornea and lens and gently separate the retina from the underlying choroid and sclera. Microscissors were used to make four radial incisions in the sclerochoroidal ‘eyecup’ in order to prepare choroidal flat mounts on glass slides. The tissues were incubated in 4% paraformaldehyde for 45 minutes and washed three times with 3% bovine serum albumin. […] The choroidal flat mounts were analyzed for presence of CNV by confocal microscopy. Extent of choroidal neovascularization was quantified by Metamorph™ imaging software. […]\nMacrophages were used to proactively treat the formation of blood vessels in the eye. […] Choroidal neovascularization was analyzed on day 7. […]", "note": "Entries after “also recorded” stand apart in the source; their conditions may differ."}
{"molecule": "B1", "values": [{"measurement": "choroidal neovascularization (volume of the neovascular complex)", "result": "reversed the inhibition choroidal neovascularization; also recorded: increased new vessel formation"}, {"measurement": "choroidal neovascularization (volume of the neovascular complex)", "setting": "listed as Exogenous IL-10", "result": "reversed the inhibition choroidal neovascularization"}]}
